# Experimental data published in the Human Domainome abundance scans (Beltran et al. 2025).
# ± gives the uncertainty stated by the source.
# B1: 3'-5' exoribonuclease 1, residues 65 to 114; numbered along this chain, Q8IV48 (parent)
# chain: VYKEIAITNGCINRMSKEELRAKLSEFKLETRGVKDVLKKRLKNYYKKQK
# Variants of: B1
# Experiment: abundance fitness (aPCA) (normalised: wild type 0, dead -1); higher = more abundant; growth selection in yeast, the domain comes from the species named
# Details: Homo sapiens
row,Variant,abundance fitness
1,N13Y,-0.437 ± 0.06
2,N13R,-0.415 ± 0.035
3,N13T,-0.684 ± 0.051
4,N13S,-0.272 ± 0.038
5,N13M,-0.801 ± 0.057
6,N13W,-0.938 ± 0.049
7,N13V,-0.764 ± 0.041
8,N13P,-0.949 ± 0.065
9,N13F,-0.961 ± 0.077
10,N13Q,-0.629 ± 0.051
11,N13L,-0.914 ± 0.043
12,N13I,-0.65 ± 0.078
13,N13E,-0.446 ± 0.05
14,N13K,-0.376 ± 0.048
15,N13D,-0.259 ± 0.055
16,N13A,-0.487 ± 0.037
17,A22T,-0.055 ± 0.052
18,A22S,-0.04 ± 0.039
19,A22V,-0.048 ± 0.038
20,A22W,-0.209 ± 0.046
21,A22G,-0.118 ± 0.034
22,A22L,-0.052 ± 0.038
23,A22K,0.057 ± 0.06
24,A22Q,-0.044 ± 0.06

row,Variant,abundance fitness
1,A22M,-0.047 ± 0.051
2,A22F,-0.12 ± 0.049
3,A22C,-0.032 ± 0.044
4,A22D,-0.122 ± 0.051
5,A22P,-0.948 ± 0.079
6,A22I,-0.057 ± 0.069
7,A22R,-0.031 ± 0.038
8,A22H,-0.049 ± 0.063
9,A22N,-0.027 ± 0.061
10,I12G,-0.877 ± 0.047
11,I12D,-0.961 ± 0.088
12,I12Y,-0.699 ± 0.06
13,I12K,-0.741 ± 0.068
14,I12R,-0.738 ± 0.042
15,I12T,-0.457 ± 0.046
16,I12E,-0.818 ± 0.073
17,I12S,-0.769 ± 0.04
18,I12F,-0.693 ± 0.048
19,I12W,-0.435 ± 0.043
20,I12L,-0.389 ± 0.034
21,I12A,-0.873 ± 0.052
22,I12C,-0.721 ± 0.056
23,I12V,-0.152 ± 0.039
24,I12Q,-0.899 ± 0.066

row,Variant,abundance fitness
1,I12P,-0.716 ± 0.048
2,K28V,-0.817 ± 0.058
3,K28Q,-0.124 ± 0.068
4,K28D,-0.156 ± 0.07
5,K28M,-0.194 ± 0.055
6,K28C,-0.127 ± 0.053
7,K28Y,-0.39 ± 0.065
8,K28F,-0.407 ± 0.083
9,K28P,-0.963 ± 0.083
10,K28G,0.038 ± 0.043
11,K28R,-0.061 ± 0.036
12,K28A,-0.141 ± 0.054
13,K28E,-0.178 ± 0.057
14,K28S,-0.06 ± 0.042
15,K28T,-0.338 ± 0.06
16,K28H,-0.057 ± 0.06
17,K28W,-0.779 ± 0.059
18,K28L,-0.732 ± 0.053
19,K23Q,-0.11 ± 0.049
20,K23C,-0.158 ± 0.057
21,K23E,-0.56 ± 0.048
22,K23V,-0.182 ± 0.036
23,K23R,-0.101 ± 0.036
24,K23S,-0.318 ± 0.039

row,Variant,abundance fitness
1,K23P,-0.941 ± 0.061
2,K23T,-0.172 ± 0.047
3,K23L,-0.176 ± 0.035
4,K23G,-0.861 ± 0.043
5,K23W,-0.234 ± 0.044
6,K23H,-0.154 ± 0.062
7,L29P,-0.999 ± 0.049
8,L29G,-0.875 ± 0.051
9,L29F,-0.688 ± 0.04
10,L29A,-0.827 ± 0.044
11,L29M,-0.198 ± 0.051
12,L29W,-0.694 ± 0.056
13,L29C,-0.256 ± 0.041
14,L29D,-0.878 ± 0.062
15,L29V,-0.561 ± 0.04
16,L29N,-0.827 ± 0.052
17,L29Y,-0.874 ± 0.047
18,L29E,-0.737 ± 0.068
19,L29I,-0.349 ± 0.041
20,L29T,-0.884 ± 0.048
21,L29K,-0.666 ± 0.054
22,L29Q,-0.196 ± 0.05
23,L29H,-0.974 ± 0.051
24,E19I,-0.699 ± 0.078

row,Variant,abundance fitness
1,E19P,-1.01 ± 0.081
2,E19A,-0.147 ± 0.047
3,E19W,-0.77 ± 0.061
4,E19C,-0.382 ± 0.053
5,E19Y,-0.652 ± 0.056
6,E19G,-0.375 ± 0.04
7,E19V,-0.379 ± 0.038
8,E19D,-0.107 ± 0.058
9,E19N,-0.299 ± 0.061
10,E19L,-0.517 ± 0.041
11,E19R,-0.438 ± 0.042
12,E19F,-0.784 ± 0.075
13,E19S,-0.26 ± 0.04
14,E19K,-0.324 ± 0.052
15,E19Q,0.007 ± 0.044
16,C11T,0.005 ± 0.044
17,C11L,-0.053 ± 0.037
18,C11P,-0.278 ± 0.047
19,C11H,-0.048 ± 0.053
20,C11N,-0.04 ± 0.05
21,C11Y,-0.052 ± 0.037
22,C11D,0.067 ± 0.048
23,C11R,-0.074 ± 0.037
24,C11Q,0.046 ± 0.054

row,Variant,abundance fitness
1,C11S,0.012 ± 0.037
2,C11A,0.046 ± 0.038
3,C11V,0.01 ± 0.034
4,C11K,-0.039 ± 0.049
5,C11G,-0.058 ± 0.035
6,C11F,-0.104 ± 0.044
7,C11W,-0.147 ± 0.053
8,C11E,0.071 ± 0.046
9,C11I,0.007 ± 0.05
10,C11M,0.057 ± 0.046
11,R21C,-0.474 ± 0.049
12,R21F,-0.688 ± 0.062
13,R21P,-0.697 ± 0.071
14,R21W,-0.833 ± 0.051
15,R21E,-0.841 ± 0.058
16,R21N,-0.787 ± 0.069
17,R21I,-0.226 ± 0.073
18,R21G,-0.804 ± 0.039
19,R21H,-0.644 ± 0.075
20,R21T,-0.473 ± 0.051
21,R21M,-0.449 ± 0.053
22,R21S,-0.518 ± 0.043
23,R21L,-0.528 ± 0.039
24,R21D,-0.844 ± 0.073

row,Variant,abundance fitness
1,R21Q,-0.221 ± 0.052
2,R21Y,-0.773 ± 0.075
3,R21V,-0.203 ± 0.038
4,S25K,0.004 ± 0.047
5,S25A,0.032 ± 0.039
6,S25H,-0.099 ± 0.059
7,S25N,-0.038 ± 0.063
8,S25R,0.022 ± 0.038
9,S25T,-0.126 ± 0.048
10,S25E,-0.106 ± 0.053
11,S25F,-0.104 ± 0.044
12,S25D,-0.096 ± 0.056
13,S25Q,-0.034 ± 0.053
14,S25I,-0.315 ± 0.055
15,S25V,-0.205 ± 0.04
16,S25W,-0.188 ± 0.05
17,S25G,-0.039 ± 0.037
18,S25P,-0.323 ± 0.059
19,S25M,-0.1 ± 0.049
20,S25Y,-0.105 ± 0.05
21,S25C,-0.121 ± 0.052
22,S25L,-0.083 ± 0.04
23,L24S,-0.488 ± 0.044
